The record followed here is the nanobody polyreactivity screen of Harvey et al. (2022).

A short description of this data set: yeast display, Sf9 membrane polyspecificity reagent, FACS + sequencing; frameworks hold sequencing errors. An outline of the steps:
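Genes from sorted yeast were amplified by colony PCR, read by MiSeq 2 × 250 sequencing and filtered on CDR length. These cells carried a synthetic nanobody library in Saccharomyces cerevisiae BJ5465 and were sorted by FACS into low and high (top ~1%) gates on anti-HA and streptavidin fluorescence. Polyreactivity is labelled according to the gate of origin.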
Consider “QVQLVESGGGLVQAGGSLRLSCAASGFTLYSYAMGWYRQAPGKERELVAAITRSGGITYYADSVKGRFTISRDNAKNTVYLQMNSLKPEDTAVYYCNAYRGGLSSEHYYWGQGTQVTVSS”, for which the “polyreactivity (PSR sort gate)” value is “high polyreactivity”.
For “QVQLVDSGGGLVQAGGSLRLSCAASGSTFPNNAMGRYRQAPGKERELVAAITTRGGSTYYADSVKGRFTISRDNAKNTVYLQMNSLKAEDTAVYYCAKRRRSAAPKYDYWGQGTQVTVSS” the value was “high polyreactivity”.
In the case of “QVQLVESVGGLVQAGGILRLSCAPSGSTSYGNAMGWYRQAPAKVRELVAAISSSGSSTYYADSVKGRFTISRDNAKNTVYLQMNSLKPEDTAVYYCNKRRSHSYYSRRFDYWGQGTQVTVSS”, the “polyreactivity (PSR sort gate)” value is “high polyreactivity”.
To “QVQLVESGGGLVQAGGSLRLSCAAYGRIFAYYAMGWYRQAPGKERELVAAISSGGTTNYADSVKGRFTISRDNAKNTVYLQMNSLKPEDTAVYYCNADGWRRSRQYYYWGQGTQVTVSS” belongs “low polyreactivity”; to “QVQLVESGGGLVQAGGSLRLSCAASGLIFAYYAMGWYRQAPGKERELVAAISWTGGSTYYADSVKGRFTISRDNAKNTVYLQMTSLKPEDTAVYYCNTVGKPGFYSWGQGTQVTVSS”, “high polyreactivity”; to “QVQLGESGGGLVQAGGSLRLSCAGSGRTFQHYFMGWYREAPGKDRELVASITNDDSTNYADSVKGLFTISRDNAKNTVYLQMNRLKPEDTAVYYCAADWTDVVPGYDYWGQGTQVTVSS”, “low polyreactivity”.
With “QVQLVESGGGVVQAGGSLRLSCAASGFLFSHNAMGWYRQAPGKERELVASITSAGTTYYADSVKGRFTISRDNAKNTVYLQMNSLKPEDTAVYYCNKGGSSPVDIYITGDGDYWGQGTQVTVSS”, the “polyreactivity (PSR sort gate)” value is listed as “low polyreactivity”.
For “QVQLVESGGGLVQAGGSLRLSCAASGSTFDGNAMGWYRQAPGKERELVAAITYTTSSTYYADSVKGRFTISRDNAKNTVYLQMTSLKPEDTAVYYWGQGTQVTVSS”, the “polyreactivity (PSR sort gate)” value is on record as “low polyreactivity”.
To “QVQLVESGGGLVQAGGSLRLSCAASGFTFSPYVMGWYRQAPGKERELVATITAGGSSTFYADSVKGRFTISRDNAKNTVYLQMNSLKPEDTAVYYCNTVSPSFVYESTSDRFDYWGQGTQVTVSS” belongs “low polyreactivity”.
With “QVQLVESGGGLVQAGGSLRLSCAASGFTFSTYAMGWYRQAPGKESELVAAITRSGGSTYYADSVKGRFTISRDIEKNTVYLQMNSLKQEDTAVYYCATDASFYDPDLYPYGYDYWGQGTQVTVSS”, the “polyreactivity (PSR sort gate)” value was “high polyreactivity”.
To “QVQLVDSGGGLVQAGGSLRLSCAASGFIFLTYGMGWYRQAPGKERELVATITSVGSTNYADSVKGRFTISRDNAKNTVYLQMNSLKPEDTAVYYCAAVSTYHVEFDFWAEYGYWGQGTQVTVSS” belongs “low polyreactivity”; to “QVQLVESGGGLVQAGGSLRLSCAASGSIQYYAMGWYRHAPGKERELVAAIRFSGGRTYYADSVKGRFTISRDNAKITVYLQMHSLKPEHTAVYYCAAYRSPRRSGAPSQGKFDYCGQGTQVTVSS”, “low polyreactivity”; to “QVQLVESGGGIVQAGGSLRLSCAASGLIFLDNAMGWYRQAPGKEREFVAAIDSGGSTNYADSVKGRFTISRDNAKNNVYLQMNSLKPEDTAVYYCAAVWIYAPWYYQESVEYYYWGQGTQVSVSS”, “low polyreactivity”.
As for “QVQLVESGGGLVQAGGSLRLSCASSGFTFYYNAMGWYRQAPGQERELVASITRSGGRTYYSDSVKGRFTISRDNAKNTVYLQMNSLKPEDTAVYYCARRYPGGYYWGQGTHVTVSS”, the “polyreactivity (PSR sort gate)” value was “high polyreactivity”.
To “QVQLVESVGGLVQAGGSLRLSCAASGRTLRYYAMGWYRQAPGKERELVATITRRSGSTYYADSVKGRFTISRDNAKNTVYLQMNSLKPEDTAVYYCNAVWRPGERDYWGQGTQVTVSS” belongs “low polyreactivity”; to “QVQLVESGGGLVQAGGSLRLSCAASGFTLIDYAMGWYRQAPGKERELVAAISGSGGRTYYADSVKGRFTISRDNAKNTVYLQMNSLKPEDTAVYYCAAGRRHVYKRRRYDYWGQGTQVTVSS”, “high polyreactivity”.
Turning to “QVQLLESCGGLVQAGGSLRLSCAASGIIFARYAMGWYRPAPGKERELVASITTSGGRTYYADSVKGRFTISRDNAKNTVYLQMNSVKPEDTAVYYCAAYYKRDQMYYWGQGTQVTVSS”, the “polyreactivity (PSR sort gate)” value is reported as “high polyreactivity”.
For “QVQLVESGGGLVQAGGSLRLSCAASGLILVYYAMGWYRQAPGKERELVAAITPGGSTKYAESVKGRFTISRDNAKNTVYLQMNSLKPEDTAVYYCNALSGPYWYYVYQSHQDDYWGQGSQVTVSS” the value was “low polyreactivity”; for “QVQLVETGGGLVQAGGSLRLSCAASGRTFWTNAMGWYRQPPGKEREFVAAISWRGASTFYADSVKWRFTISRDNAKNTVYLQMNSLIPEDTAVFYCAAQSRTRSFYGKYDSWGQGNQVTVSS”, “low polyreactivity”; for “QVQLVESGGGLVQAGGSLRLSCAASGIIFDEYAMGWYIQAPGKERELVAAITRDGGTNYADSVKGRFTISRDNAKNTVYLQMNSLKPEDTAVYYCAKRAYFYYGRYDYWGQGTQVTVSS”, “low polyreactivity”.
Regarding “QVQLVESGGGLVQAGGSLRLSCAASGSTFPGYAMGWYRQAPGKERELVAAINGRGGSTYYADSVKGRFTISRDNAKNTVYLQMNSLKPEDSAVYYCAAFVGSRSAKYIKYWGQGTQVTVSS”, the “polyreactivity (PSR sort gate)” value is listed as “high polyreactivity”.
To “QVQLVESGGGLVQAGGSLRLSCAASGSIFAGYAMGWYRQAPGKERELVAAISWSGGGTYYADSVKGRFTISRDNAKNTVYLQMNSLKPEDTAVYYCNAYGYRHRGNGYWGQGTQVTVSS” belongs “high polyreactivity”; to “QVQLVESGGGLVQAGGRLRLSCAASGSTSVYYARGWYRQAPGKERELVAGITSGGNTNYADSVKGRFTISRDNAKNTVYFQMISLNPEDTSVYYCNAVYIVTVGWIRLGSYYYWGQGTQVTVSS”, “low polyreactivity”.
Turning to “QVQLVESGGGLVQAGGSLRLSCAASGIILYYYAMGWYRQAPGKERELVAAINWSGGSTSYADSVKGRFTISRDNAKNTVYLQMNSLKPEDTAVYYCAARLGSWHYQVWNDKYEYWGQGTQVTVSS”, the “polyreactivity (PSR sort gate)” value is on record as “high polyreactivity”.
For “QVQLVESGGGLVQAGGRLRLSFAASGITFYVYTMGWYRQAPGKERELVPAISTTGSTNYADSVKGRFTISRDNAKNTVYLQMNSLKPEDTAVYYCNAKYYWLVFEYDYWGQGTQVTVSS” the value was “high polyreactivity”.
For “QVQLVESGGGLVQAGGSLRLSCAASGRTFYVYDMGWYRQAPGKERELVAAISTNYADSVKGRFTISRDNAKNTVYLQMNSLNPEDTAVYYCAADDIHYVIHAYYSSGVDYWGQGTQVTVSS” the value was “low polyreactivity”; for “KVQLVESGGGLVQAGGSLRLSCAASGSTFSTNAMGRYRQAPGKERELVAAISRTGGSTYYADSVKGRFTISRDNAKNNVYLPMNILKPEDTAVYYSARYSYRGTNVRFDYWGQGTQVTLSS”, “high polyreactivity”.
To “QVQLEESGRGLLQAGGSLRISCAASGFIYGTNTMGWYRQAPGIARELVAAITSVGSTNYADSVKGRFTISRDNAKNTVYLQMNSLKPEDTAVYYCPATLYYQYGGDYWGQGTQVTVSS” belongs “low polyreactivity”; to “QVQLQESGGGLVQAGGSLRLSCAASGYISHADEMGWYRQAPGKEHELVASISNGGSTNYADSVKGRFTISRDNANNTVYLQMNSLKSEVTAVYYCAAWTGQVDIHYYWGQGTQVTVSS”, “low polyreactivity”; to “QVQLVESGGGLVQAGGSLRLSCAASGSTFGKNAMGWYRQAPRKERELVAAISRSGGRTYYADSVKGRFTISRDNAKNTVYLQMNSLKPEDTAVYYCAREWYTAGSGDYWGQGTQVTVSS”, “low polyreactivity”.
Take “QVQLVESRGVLVQAGGSLRLSCAASGRTFYFYVKGWYIQEPGKERELVARISYSDGSTYYADSVKGRFTISRDNAKNTVYLQMNSLKPEDTAVYYCNAYDPYFGRRYDYWGQGTQVTVSS”: the “polyreactivity (PSR sort gate)” value is “low polyreactivity”.
For “QVQLVESGGGLVQAGGSLRLSCAASGSTFYLNAMGWYRQEPGKERELVAAISSGGRTYYADSVKGRFTISRDNAKNTVYFQKNSLKPEDTAVYYCAATRLYWKIFYGDGDYWGQGTQVTVSS” the value was “high polyreactivity”; for “QVQLVESGGGLVQAGGSLRLSCAASGRIFNRNAMGWYRQAPGKERELVATISFNDGSTYYADSVKGRFRISRDIAKNTVYLQMNSLKPEDTAVYYCAKEGYVFEYDYWGKGTQVTVSS”, “low polyreactivity”.
On to “QVQLVESGGGLVQAGGSLRLSCAASGRIFVINAMGWYRQAPGKERELVADITWSGGSTYADSVKGRFTISRDNAKNTVYLLMNSLNPADTAVSYCAAVYLRVDRYLQVYRYDYWGQGTQVTVSS”, for which the “polyreactivity (PSR sort gate)” value is reported as “high polyreactivity”.
For “QVQLVESGGGLVQAGGSLRLSCAASGSTFPFYAMGWYRQAPGKERELVAAITSGGSTYADSVKGRFTISRDNAKNTVYLQMNSLKPEDTAVYYCAASWPRWWRFGYWGQGTQVTVSS” the value was “low polyreactivity”; for “QVQLVESGGGLVQAGGSLRLSCAASGRIFRYYAMGWYRQAPGKERELVATISSSGGSTYYADSVKGRFTISRDNAKNTVYLQMKSLKPEDTAVYYCAADWYGYRQFHGYYWGQGTQVTVSS”, “high polyreactivity”; for “QVQLVESGGGLVQAGGSLRLSCAASGRIFGRYTMGWYRQAPGKERELVAGITSSGGRTYYADSVKGRFTISRDNANNTVYLQMNSLKPEDTAVYYCAAKRWSVPSLYNYWGQGTQVTVSS”, “high polyreactivity”.
For “QVQLVESGGGLVQAGGSLRLSCAASGRTFVYNAMGWYRQAPGKERELVAAIDWSGGSTYYADSVKGRFTISRDNAKNTVYLQMNSLKPEDTAVYYCAADYYYPSQMDYWGQGTQVTVSS” the value was “low polyreactivity”; for “QVQLVESGGGLVQAGGSLRLSCAASGRIFYGNVIGWYRQAPGKERELVADIYYDGGSTYYADSVKGRFTISRDNAKNTVYLQMNSLKPEDTAVYYCNKREVFIYGTTYDYWGQGTQVTVSS”, “low polyreactivity”.
Turning to “QVQLVESGGGLVQAGGSLRLSCAASGRIFRGYAMGWYRQAPGKERELVATISAIGGSTYADSVKGRFTISRDNAKNTVYLQRNSLKPEDTAVYYCNVRKVYRYQYRFEYWGQGTQVTVSS”, the “polyreactivity (PSR sort gate)” value is reported as “high polyreactivity”.
As to “QVQLVESGGGLVQAGGSLRLSCAASGFTFARYAMGWYRQAPGKERELVAAINWSGGRTYYADSVKGRFTISRDNAKNTVYLQMNSLKPEDTAVYYCNAWGLVYYSSGYDYWGQGTQVTVSS”, the “polyreactivity (PSR sort gate)” value is “high polyreactivity”.
